For assay [1], the target named is T1, human GPRC5D (human, UniProt Q9NZD1 1-345). Briefly: cell-based or functional assay.
The target of assay [2] is T1, human GPRC5D. The assay can be described thus: FACS, human GPRC5D cells.

Changes are numbered by the printed parent chain.

T1 sequence (Q9NZD1 whole entry): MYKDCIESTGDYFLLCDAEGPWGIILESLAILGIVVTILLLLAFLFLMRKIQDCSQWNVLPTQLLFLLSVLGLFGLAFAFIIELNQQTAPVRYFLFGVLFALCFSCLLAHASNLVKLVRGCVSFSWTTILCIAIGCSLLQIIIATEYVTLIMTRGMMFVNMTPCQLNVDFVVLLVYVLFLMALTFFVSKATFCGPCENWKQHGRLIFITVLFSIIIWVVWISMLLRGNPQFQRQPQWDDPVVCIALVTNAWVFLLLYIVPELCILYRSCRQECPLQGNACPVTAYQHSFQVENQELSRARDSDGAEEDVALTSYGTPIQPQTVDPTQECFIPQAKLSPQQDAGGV

B1: GCDB40 (bispecific antibody, V domains shown)
VH 1: EVQLVESGGGLVQPGGSLRLSCAASGFTFNTYAMNWVRQAPGKGLEWVARIRSKYNNYATYYAASVKGRFTISRDDSKNSLYLQMNSLKTEDTAVYYCARHGNFGNSYVSWFAYWGQGTLVTVSS
VL 1: QTVVTQEPSLTVSPGGTVTLTCRSSTGAVTTSNYANWVQQKPGQAPRGLIGGTNKRAPGTPARFSGSLLGGKAALTLSGVQPEDEAEYYCALWYSNLWVFGGGTKLTVL
VH 2: EVQLLESGGGLVQPGGSLRLSCAASGFTFSDYGMHWVRQAPGKGLEWVSAIKYSGGSTYYADSVKGRFTISRDNSKNTLYLQMNSLRAEDTAVYYCAKRAESGPGLDYWGQGTLVTVSS
VL 2: not shown
As for B1, in the assay with human GPRC5D [1], the “T-cell mediated cytotoxicity EC50, H929 (n = 5)” value was 1.2 nM and the “T-cell mediated cytotoxicity EC50, MM1R (n = 3)” value came to 0.52 nM.

B2: GCDB35 (bispecific antibody, V domains shown)
VH 1: B1 VH 1
VL 1: B1 VL 1
VH 2: EVQLVQSGAEVKKPGESLKISCKGSGYSFTSYWIGWVRQMPGKGLEWMGIIYPGDSDTRYSPSFQGQVTISADKSISTAYLQWSSLKASDTAMYYCARVYSFGGRHKALFDYWGQGTLVTVSS
VL 2: EIVLTQSPATLSLSPGERATLSCRASQSVSSYLAWYQQKPGQAPRLLIYDASNRATGIPARFSGSGSGTDFTLTISSLEPEDFAVYYCQQRSNWPLTFGQGTKVEIK
As to B2, in the assay with human GPRC5D [1], the “T-cell mediated cytotoxicity EC50, H929 (n = 5)” value turned out to be 1.39 nM and the “T-cell mediated cytotoxicity EC50, MM1R (n = 3)” value is 0.74 nM.

B3: GCDB44 (bispecific antibody, V domains shown)
VH 1: B1 VH 1
VL 1: B1 VL 1
VH 2: not shown
VL 2: B2 VL 2
With B3, in the assay with human GPRC5D [1], the “T-cell mediated cytotoxicity EC50, H929 (n = 5)” value turned out to be 10.3 nM and the “T-cell mediated cytotoxicity EC50, MM1R (n = 3)” value was determined as 4.41 nM.

B4: GCDB43 (bispecific antibody, V domains shown)
VH 1: B1 VH 1
VL 1: B1 VL 1
VH 2: not shown
VL 2: not shown
For the molecule B4, in the assay with human GPRC5D [1], the “T-cell mediated cytotoxicity EC50, H929 (n = 5)” value turned out to be 0.36 nM and the “T-cell mediated cytotoxicity EC50, MM1R (n = 3)” value is 0.21 nM.

B5: GCDB41 (bispecific antibody, V domains shown)
VH 1: B1 VH 1
VL 1: B1 VL 1
VH 2: QVQLVQSGAEVKKPGSSVKVSCKASGGTFSSYGISWVRQAPGQGLEWMGGIIPIFGNINYAQKFQGRVTITADESTSTAYMELSSLRSEDTAVYYCARVSRRFKRFAYYFDYWGQGTLVTVSS
VL 2: not shown
Take B5: in the assay with human GPRC5D [1], the “T-cell mediated cytotoxicity EC50, MM1R (n = 3)” value was determined as 2.58 nM.

B6: GC5B503 (antibody, V domains shown)
VH: B2 VH 2 with D55K
VL: B2 VL 2
notes: GC5B164 PTM variant, Hc GC5H246
In the case of B6, the binding result in the assay with human GPRC5D [2] is “binds”.

B7: GC5B504 (antibody, V domains shown)
VH: B2 VH 2 with D55E
VL: B2 VL 2
notes: GC5B164 PTM variant, Hc GC5H245
Take B7: the binding result with human GPRC5D [2] was “binds”.

B8: GC5B505 (antibody, V domains shown)
VH: B2 VH 2 with D55Y
VL: B2 VL 2
notes: GC5B164 PTM variant, Hc GC5H244
In the case of B8, the binding result with human GPRC5D [2] is on record as “binds”.

These data come from patent US20230227548A1 (published 2023).
